In the first test the target is T1, DPP-IV (Sus scrofa, UniProt P22411). Briefly: In vitro DPP-IV inhibition assay with Gly-Pro-p-nitroanilide substrate (absorption at 385 nm). To be noted: unhydrolysed control proteins, DH 0%. Also noted: purchased Sigma D-7052. Format: biochemical. As to the method: DPP-IV activity can be determined by measuring the increase in absorption at 385 nm using Gly-Pro-p-nitroanilide (Sigma G-0513) as DPP-IV substrate. A decrease in DPP-IV activity is a measure for the inhibition.
T1 sequence (P22411 whole entry): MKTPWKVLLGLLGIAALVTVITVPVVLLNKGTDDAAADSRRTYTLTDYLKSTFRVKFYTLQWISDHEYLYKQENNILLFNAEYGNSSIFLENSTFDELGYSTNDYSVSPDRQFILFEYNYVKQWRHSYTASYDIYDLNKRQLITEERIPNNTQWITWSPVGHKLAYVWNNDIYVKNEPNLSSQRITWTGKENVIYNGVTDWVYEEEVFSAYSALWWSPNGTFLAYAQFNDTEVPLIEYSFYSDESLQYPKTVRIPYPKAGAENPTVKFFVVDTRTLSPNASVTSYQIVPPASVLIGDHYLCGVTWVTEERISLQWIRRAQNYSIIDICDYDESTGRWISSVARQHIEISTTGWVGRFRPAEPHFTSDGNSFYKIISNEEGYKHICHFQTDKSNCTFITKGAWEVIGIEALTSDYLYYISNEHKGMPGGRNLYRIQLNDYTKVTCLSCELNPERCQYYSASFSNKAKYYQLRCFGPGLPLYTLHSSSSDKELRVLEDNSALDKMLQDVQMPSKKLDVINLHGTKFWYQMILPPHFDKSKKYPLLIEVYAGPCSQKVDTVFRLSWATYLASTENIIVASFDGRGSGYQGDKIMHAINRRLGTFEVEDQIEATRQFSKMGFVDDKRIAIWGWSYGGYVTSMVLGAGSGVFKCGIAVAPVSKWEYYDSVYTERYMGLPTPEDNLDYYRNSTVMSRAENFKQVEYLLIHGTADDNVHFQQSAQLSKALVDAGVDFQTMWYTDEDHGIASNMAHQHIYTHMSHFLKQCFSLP
13.152 mg Gly-Pro-p-nitroanilide (substrate; Sigma G-0513) was dissolved in 1 ml Tris buffer, pH 8.0. DPP-IV (Sigma D-7052) was diluted with Tris buffer, pH 8.0 to 1.1 Unit/ml. The substrate was diluted 50-fold with Tris buffer, pH 8.0. The samples were prepared by diluting a protein hydrolysate to a 1 wt. % protein solution in Tris buffer, pH 8.0. The samples were then serially diluted to obtain a range of sample concentrations. 50 μl of the different serially diluted samples and 50 μl of the diluted substrate were then pipetted in wells of a microtiter plate with 96 wells. Subsequently, 100 μl of the diluted enzyme was pipetted in each well of a plate with 96 wells. Then the increase in absorption at 385 nm was determined and DPP-IV activities at different concentrations of a variety of protein hydrolysates were determined, from which the IC50 (i.e. the concentration of inhibitor (particular protein hydrolysate) that inhibits 50% of the DPP-IV activity) could be derived. […] The degree of hydrolysis was determined using the o-phtaldialdehyde method, which is well known in the art.
For the molecule Sodium caseinate, the “inhibition of the enzyme DPP-IV” value is recorded as “did not inhibit”.

The next test concerns the target T1, DPP-IV.
Assay: not given
To be noted: additional peptides. An excerpt:
About 40 protein hydrolysates were subjected to on-line liquid chromatography (LC)-biochemical detection (BCD)-mass spectrometry (MS), a method that allowed for separation of crude extract by HPLC, after which the presence of bioactive compounds was detected by means of an on-line biochemical assay. This method for on-line fractionation and characterisation has extensively been described by Van Elswijk et al. (J Chromatography A (2003) 1020:45-58).
A variety of protein hydrolysates prepared according to example 2 were further investigated for DPP-IV inhibiting activity. Hydrolysed protein samples were analysed for DPP-IV inhibitory activity in a high-resolution screening (HRS) instrument, as discussed in Van Elswijk et al. (supra).
DPP-IV inhibition was monitored via the substrate conversion based bioassay format as disclosed in example 1. In addition to the DPP-IV inhibitory activity data, chemical information was obtained in real-time by allowing part of the HPLC effluent to be directed towards a mass spectrometer. […] The assay conditions applied ensured maximum enzyme activity by applying substrate saturation.
Take VTKCCTE: the “DPP-IV inhibiting activity (qualitative)” value was “DPP-IV inhibiting compounds”.

The same test, now with this note: signal relative to the highest signal obtained in this test (LPL and IPI).
Consider `CC[C@H](C)[C@H](N)C(=O)N1CCC[C@H]1C(=O)N[C@H](C(=O)O)[C@@H](C)CC` [IPI], for which the “RELATIVE POTENCY [%]” value is 100%.

For the molecule GPFP, the “RELATIVE POTENCY [%]” value is 34%.

For HPIK, the “RELATIVE POTENCY [%]” value came out at 6%.

Regarding KVLP, the “RELATIVE POTENCY [%]” value worked out at 98%.

With LPLP, the “RELATIVE POTENCY [%]” value was 11%.

Regarding LPVP, the “RELATIVE POTENCY [%]” value was determined as 15%.

On to MPLW, for which the “RELATIVE POTENCY [%]” value was found to be 23%.

Consider PFP, for which the “RELATIVE POTENCY [%]” value is 20%.

Turning to PLLQ, the “RELATIVE POTENCY [%]” value is listed as 37%.
